Test results reported in paper PMC5430633, “Phosphorylation of the mitochondrial autophagy receptor Nix enhances its interaction with LC3 proteins” (Scientific Reports, 2017).
Each block holds one binder with its values, some of them ahead of it.

Experiments:
Settings in all cases: both partners purified
[1] = biological target: LC3B wild type (for ITC and NMR) (human, UniProt Q9GZQ8 1-120); assay: ITC; 25 °C, VP-ITC; peptides 0.31 mM titrated into 0.018 mM LC3B proteins in 25 steps; 40 mM Na2HPO4, 80 mM NaCl, pH 7.0; one-site binding model
LC3B K51A (for ITC) = LC3B K51A (for ITC) (human, UniProt Q9GZQ8 1-120, K51A); assay: as above
LC3B K49A (for ITC) = LC3B K49A (for ITC) (human, UniProt Q9GZQ8 1-120, K49A); assay: as above
LC3B R11A (for ITC) = LC3B R11A (for ITC) (human, UniProt Q9GZQ8 1-120, R11A); assay: as above
[2] = biological target: T1, LC3B wild type (for ITC and NMR) (human, UniProt Q9GZQ8 1-120); assay: as above; remark: listed apart in the source
[3] = biological target: T1, LC3B wild type (for ITC and NMR); assay: ITC; rows marked WT*: previous set of conditions reported by Novak et al.: 50 mM NaPi, 150 mM NaCl, pH 7.5

- Kd [1]: 99 µM
B1: Nix LIR P0 peptide (unphosphorylated) (peptide)
peptide: AGLNSSWVELPMNSSNG
notes: Nix LIR motif peptide without phosphorylation of Ser34 and Ser35; also called non-phosphorylated P0 peptide; source: synthetic peptide, bought: GenScript USA Inc, 95% pure

- Ka (LC3B K51A (for ITC)): 34000 M⁻¹
- Kd (LC3B K51A (for ITC)): 29 µM
- dH (LC3B K51A (for ITC)): -4.7 ± 0.01 kcal/mol
- Ka (LC3B K49A (for ITC)): 1.02e+06 M⁻¹
- Kd (LC3B K49A (for ITC)): 0.98 µM
- dH (LC3B K49A (for ITC)): -10.84 ± 0.01 kcal/mol
- stoichiometry N (LC3B K49A (for ITC)): 0.99 ± 0.01
- Ka (LC3B R11A (for ITC)): 233000 M⁻¹
- Kd (LC3B R11A (for ITC)): 4.29 µM
- dH (LC3B R11A (for ITC)): -8.22 ± 0.23 kcal/mol
- stoichiometry N (LC3B R11A (for ITC)): 1.06 ± 0.02
- Ka [2]: 498000 M⁻¹
- Kd [2]: 2.01 µM
- dH [2]: -9.38 ± 0.17 kcal/mol
- stoichiometry N [2]: 1.04 ± 0.01
- Ka [3]: 680000 M⁻¹
- Kd [3]: 1.47 µM
- dH [3]: -10.5 ± 0.13 kcal/mol
- stoichiometry N [3]: 0.99 ± 0.01
Binder: RPEEQMESDNCSGGDDDWTHLS [p62 LIR peptide]
